This note sets out measurements from the supplement of paper PMC7877785.

± gives the uncertainty stated by the source.

The series is described as follows: self-splicing fitness, log relative to wild type (ln ratio); higher = more splicing; Tetrahymena group I intron in knt gene, E. coli kanamycin selection, DiMSum; sequences stand for … in CUCUCU…GGAGGGAAAAGUUAUCAGGCAUGCACCUGGUAGCUAGUCUUUAAACCAAUAGAUUGCAUCGGUUUAAAAGGCAAGACCGUCAAAUUGCGGGAAAGGGGUCAACAGCCGUUCAGUACCAAGUCUCAGGGGAAACUUUGAGAUGGCCUUGCAAAGGGUAUGGUAAUAAGCUGACGGACAUGGUCCUAACCACGCAGCCAAGUCCUAAGUCAACAGAUCUUCUGUUGAUAUGGAUGCAGUUCACAGACUAAAUGUCGGUCGGGGAAGAUGUAUUCUUCUCAUAAGAUAUAGUCGGACCUCUCCUUAAUGGGAGCUAGCGGAUGAAGUGAUGCAACACUGGAGCCGCUGGGAACUAAUUUGUAUGCGAAAGUAUAUUGAUUAGUUUUGGAGUACUCGUGGUCG
In a few lines: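 Library with all eight P1ex-region intron nucleotides randomised, intron inside the knt kanamycin-resistance gene on pET-22b(+), in E. coli BL21(DE3). Cells grew overnight at 37°C or 30°C on LB agar with or without 25 μg/mL kanamycin (plus 100 μg/mL carbenicillin, 50 μM IPTG, 0.2% rhamnose), in six replicate transformations. Pooled colonies were amplicon-sequenced on Illumina HiSeq 2500. DiMSum fitness is the error-weighted combination of wild-type-normalised replicate fold changes, kanamycin versus none.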

On to AAACAGCAAUAUUACGGACC, for which the “self-splicing fitness (ln)” value reads like this: (30 °C) -1.94 ± 0.078; (37 °C) -1.08 ± 0.095.

CUGUAGCAAUAUUACGAUUG: the “self-splicing fitness (ln)” value (30 °C) is -1.2 ± 0.23 and the “self-splicing fitness (ln)” value (37 °C) worked out at 0.185 ± 0.22. Consider AGGGAGCAAUAUUACGCUUU, for which the “self-splicing fitness (ln)” value was -2.49 ± 0.45 (30 °C) and -2.48 ± 0.5 (37 °C). Turning to GAGUAGCAAUAUUACGAUGA, the “self-splicing fitness (ln)” value was -1.87 ± 0.2 (30 °C) and -2.22 ± 0.23 (37 °C). With UUUUAGCAAUAUUACGACCU, the “self-splicing fitness (ln)” value (37 °C) is -1.36 ± 0.44. Regarding AUUCAGCAAUAUUACGCUCG, the “self-splicing fitness (ln)” value runs as follows: (30 °C) -1.11 ± 0.16; (37 °C) 0.0381 ± 0.19. The corresponding values for UAUUAGCAAUAUUACGAUAU are -3.81 ± 0.26 and -2.11 ± 0.2. On the same counts, the results for GUGAAGCAAUAUUACGCGCG are -0.674 ± 0.083 and 0.0224 ± 0.12. On the same counts, the results for AAGUAGCAAUAUUACGUUAA are -2.47 ± 0.23 and -2.33 ± 0.18. Consider AAGGAGCAAUAUUACGUUCG, for which the “self-splicing fitness (ln)” value (30 °C) is -1.78 ± 0.11 and the “self-splicing fitness (ln)” value (37 °C) was -0.665 ± 0.2.

Regarding CAAGAGCAAUAUUACGCUUA, the “self-splicing fitness (ln)” value is -2.23 ± 0.17 (30 °C) and -0.92 ± 0.15 (37 °C). As to GCCCAGCAAUAUUACGAUCA, the “self-splicing fitness (ln)” value (30 °C) is -1.65 ± 0.11 and the “self-splicing fitness (ln)” value (37 °C) is -0.633 ± 0.1.

As for GCGUAGCAAUAUUACGUCAA, for the setting “37 °C”, the “self-splicing fitness (ln)” value was -2.38 ± 0.32. Regarding ACGUAGCAAUAUUACGUCGG, the “self-splicing fitness (ln)” value reads like this: (30 °C) -3.32 ± 0.33; (37 °C) -2.07 ± 0.2. On to UCGAAGCAAUAUUACGCUCU, for which the “self-splicing fitness (ln)” value (37 °C) was -1.36 ± 0.34. As for UAGAAGCAAUAUUACGCCAU, under “30 °C”, the “self-splicing fitness (ln)” value is -1.02 ± 0.4. In the case of UCCCAGCAAUAUUACGCGUA, the “self-splicing fitness (ln)” value reads like this: (30 °C) -0.178 ± 0.066; (37 °C) 0.0254 ± 0.079. On the same counts, the results for UCAGAGCAAUAUUACGUGUG are -2.67 ± 0.13 and -2.53 ± 0.13. With CCACAGCAAUAUUACGUUUU, the “self-splicing fitness (ln)” value (30 °C) was -3.73 ± 0.16 and the “self-splicing fitness (ln)” value (37 °C) is -3.7 ± 0.22. On the same counts, the results for UGGAAGCAAUAUUACGAUCG are 0.288 ± 0.14 and 0.382 ± 0.15. With GCACAGCAAUAUUACGGGCC, the “self-splicing fitness (ln)” value (37 °C) was -1.7 ± 0.21.

Take AUGUAGCAAUAUUACGUUGG: the “self-splicing fitness (ln)” value (30 °C) was -2.21 ± 0.12 and the “self-splicing fitness (ln)” value (37 °C) was -1.8 ± 0.17.

On to UCAUAGCAAUAUUACGCAGA, for which the “self-splicing fitness (ln)” value is -2.93 ± 0.34 (30 °C) and -2.7 ± 0.24 (37 °C). In the case of CUUCAGCAAUAUUACGAUCG, the “self-splicing fitness (ln)” value is -0.136 ± 0.044 (30 °C) and 0.234 ± 0.069 (37 °C). For the sequence UCCCAGCAAUAUUACGGUGC, the “self-splicing fitness (ln)” value reads like this: (30 °C) -2.41 ± 0.13; (37 °C) -1.51 ± 0.13. The corresponding values for UGGUAGCAAUAUUACGUGGC are -3.64 ± 0.32 and -3.04 ± 0.34. Turning to GGGGAGCAAUAUUACGACUG, under “30 °C”, the “self-splicing fitness (ln)” value is -0.399 ± 0.45.

On to AGUCAGCAAUAUUACGCCCA, for which the “self-splicing fitness (ln)” value is, setting by setting: (30 °C) -1.19 ± 0.13; (37 °C) 0.479 ± 0.18.

Regarding CCCGAGCAAUAUUACGUUUU, the “self-splicing fitness (ln)” value (30 °C) was -4.01 ± 0.33 and the “self-splicing fitness (ln)” value (37 °C) was -2.01 ± 0.23.

For the sequence ACGCAGCAAUAUUACGUGCA, the “self-splicing fitness (ln)” value is -1.58 ± 0.076 (30 °C) and -0.0655 ± 0.083 (37 °C).

Turning to CCGUAGCAAUAUUACGUGUG, the “self-splicing fitness (ln)” value runs as follows: (30 °C) -2.36 ± 0.095; (37 °C) -1.06 ± 0.082. On the same counts, the results for UUUAAGCAAUAUUACGCCAA are -0.939 ± 0.14 and 0.281 ± 0.24. On to CACAAGCAAUAUUACGUUCA, for which the “self-splicing fitness (ln)” value runs as follows: (30 °C) -1.31 ± 0.084; (37 °C) -1.49 ± 0.089. In the case of CCAGAGCAAUAUUACGGCCG, the “self-splicing fitness (ln)” value is -1.72 ± 0.16 (30 °C) and -0.276 ± 0.31 (37 °C). On the same counts, the results for AACCAGCAAUAUUACGUAGG are -2.67 ± 0.089 and -1.79 ± 0.099.

For the sequence UCAGAGCAAUAUUACGAGUC, the “self-splicing fitness (ln)” value by setting is: (30 °C) -3.39 ± 0.35; (37 °C) -3.09 ± 0.21. On the same counts, the results for UAGUAGCAAUAUUACGUUUG are -2.4 ± 0.18 and -0.923 ± 0.14. On the same counts, the results for GCCUAGCAAUAUUACGAAUG are -2.57 ± 0.18 and -2.43 ± 0.25. GAGAAGCAAUAUUACGGUGG: the “self-splicing fitness (ln)” value reads like this: (30 °C) -2.14 ± 0.14; (37 °C) -2.93 ± 0.25.

For the sequence UCCUAGCAAUAUUACGCACC, the “self-splicing fitness (ln)” value is, setting by setting: (30 °C) -2.95 ± 0.32; (37 °C) -1.62 ± 0.25. The corresponding values for CUCUAGCAAUAUUACGCUAG are -3.15 ± 0.25 and -1.85 ± 0.28.

For GGUGAGCAAUAUUACGUAUC, the “self-splicing fitness (ln)” value runs as follows: (30 °C) -1.77 ± 0.1; (37 °C) -0.807 ± 0.12. The corresponding values for UCUUAGCAAUAUUACGAAGA are -3.02 ± 0.49 and -2.64 ± 0.38. The corresponding values for ACUCAGCAAUAUUACGUUUC are -2.88 ± 0.17 and -2.33 ± 0.21. The corresponding values for UGCUAGCAAUAUUACGUCAG are -2.36 ± 0.12 and -1.33 ± 0.12.

AUGCAGCAAUAUUACGAGCG: the “self-splicing fitness (ln)” value is -0.487 ± 0.063 (30 °C) and -0.0426 ± 0.084 (37 °C). On the same counts, the results for GAUCAGCAAUAUUACGCCUG are -0.866 ± 0.17 and 0.935 ± 0.19. On the same counts, the results for CCGUAGCAAUAUUACGUAAA are -3.22 ± 0.13 and -2.38 ± 0.23.

As to GCCCAGCAAUAUUACGCGUC, the “self-splicing fitness (ln)” value was -1.17 ± 0.067 (30 °C) and -0.202 ± 0.075 (37 °C). For CCCUAGCAAUAUUACGAUUA, the “self-splicing fitness (ln)” value is, setting by setting: (30 °C) -1.88 ± 0.44; (37 °C) -1.33 ± 0.34. On the same counts, the results for UCGGAGCAAUAUUACGGAGG are -3.68 ± 0.46 and -1.98 ± 0.34. Regarding AAUGAGCAAUAUUACGUGAA, the “self-splicing fitness (ln)” value is -2.17 ± 0.16 (30 °C) and -1.8 ± 0.27 (37 °C).

As to UAUCAGCAAUAUUACGUUGG, the “self-splicing fitness (ln)” value is -2.48 ± 0.089 (30 °C) and -0.612 ± 0.1 (37 °C). The corresponding values for AUCAAGCAAUAUUACGAGAG are -3.32 ± 0.16 and -1.76 ± 0.11. Turning to UGAUAGCAAUAUUACGCAGG, the “self-splicing fitness (ln)” value was -3.38 ± 0.24 (30 °C) and -2.27 ± 0.36 (37 °C).

On to CCCAAGCAAUAUUACGGGUC, for which the “self-splicing fitness (ln)” value (30 °C) was -3.19 ± 0.13 and the “self-splicing fitness (ln)” value (37 °C) is -3.14 ± 0.19. In the case of GUUAAGCAAUAUUACGGGAU, the “self-splicing fitness (ln)” value is, setting by setting: (30 °C) -2.31 ± 0.14; (37 °C) -0.169 ± 0.14.

In the case of GCUGAGCAAUAUUACGGUGA, the “self-splicing fitness (ln)” value by setting is: (30 °C) -1.35 ± 0.17; (37 °C) -0.217 ± 0.17.

Turning to GAGGAGCAAUAUUACGUUCC, the “self-splicing fitness (ln)” value (37 °C) is -2.82 ± 0.48. As for AGAGAGCAAUAUUACGAGUG, the “self-splicing fitness (ln)” value (37 °C) is -2.15 ± 0.34. On to GUGUAGCAAUAUUACGUUUU, for which the “self-splicing fitness (ln)” value (30 °C) was -3.32 ± 0.16 and the “self-splicing fitness (ln)” value (37 °C) is -1.45 ± 0.12.

Consider UCAAAGCAAUAUUACGUCUU, for which the “self-splicing fitness (ln)” value by setting is: (30 °C) -4.01 ± 0.18; (37 °C) -3.03 ± 0.17.
